From US20170355763A1 (published 2017) come the findings set out here.

This assay has as its target T1, purified, recombinant human IL-31 fused at the C-terminal with a peptide consisting of the sequence EYMPME … (human, UniProt Q6EBC2 27-164).
T1 construct: also called human IL-31-CEE; rIL31
T1 sequence: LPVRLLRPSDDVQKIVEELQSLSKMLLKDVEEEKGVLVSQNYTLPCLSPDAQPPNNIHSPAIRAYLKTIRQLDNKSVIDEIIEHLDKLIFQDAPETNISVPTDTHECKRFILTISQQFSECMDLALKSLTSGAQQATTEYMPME
In words: capture ELISA: mAb of supernatant captured on anti-mouse IgG Fc, biotinylated IL-31-CEE. As for the experimental part:
These new supernatants were tested using the cell-based neutralization assay (serial 3-fold dilutions starting with neat supernatant and proceeding to a final 1:243 dilution) as well as a “capture” style ELISA assay similar to that used in the development of the rat anti-murine IL-31 mAbs with the following differences; 1) sheep anti-mouse IgG, Fc specific antibody (Jackson Immunoresearch) (1 ug/mL) as plate coating antibody, 2) plates blocked once with PBS-Tween+1% BSA for 1 hr, 3) a single titration of each supernatant added to wells (serial 3-fold dilutions starting with neat supernatant and proceeding to a final 1:2187 dilution), and 4) addition of biotinylated IL-31-CEE (3:1 molar ratio of biotin:protein), 200 ng/mL. This assay was felt to be more pertinent than the binding of antibody to plate bound IL-31-CEE as it assessed the ability of antibody to bind to IL-31-CEE in solution, a property essential to a good antibody for sandwich style ELISAs. It was in fact observed that a number of the master wells supernatants containing antibody that bound well to plate bound IL-31-CEE poorly recognized this molecule in solution.
To reduce the number of hybridomas going into further subcloning, two new assays were performed with exhausted supernatant from each of the selected first round clones. […]
For orientation: In an ELISA, binding on a coated surface is turned into a signal by an enzyme label.

B1: mouse anti-human IL-31 mAb 294.144.3.5 (antibody, mouse IgG1, V domains shown)
VL: ENVLTQSPAIMSASPGERVTMTCSASSSVSYMHWYQQKSSNSPKLWIYDTTKLASGVPGRFSGSGSGNSYSLTISSMEAEDVATYFCFQGSEHPLTFGGGTTLEI
VH: QVQLQQSGPELMKPGASVKISCKATGYTFSTYWIEWIKQRPGHGLEWIGEILPGRGTTNYNAKFQGKATFTAETSSNTAYMQLSSLTSEDSAVYYCTTESKLGDDDYWQGTTLTVSS
notes: Mouse IgG1; also called ATCC PTA-6873
As for B1, the EC50 turned out to be 0.0134 µg/mL.

For orientation: EC50 means the concentration needed to bring the measured effect to its halfway point.
